{
  "source": "paper PMC9113379",
  "about": "(Cell & Bioscience, 2022)",
  "data": [
    {"target": "T1, SARS-CoV-2 S protein RBD domain (wild type) (SARS-CoV-2, UniProt P0DTC2)", "experiment": "SPR", "conditions": "both partners purified", "units": {"Kd": "nM"}, "values": [
      {"binder": "R3P2-A2 mAb (antibody, V domains shown) VH: QVQLVQSGGGLIQPGGSLRLSCAASGVTVSSNYMSWVRQAPGRGLEWVSLIYPGGSTYYADSVKGRFTISRDNSRNTLYLQMNSLRAEDTAVYYCARDLSEKGGMDVWGQGTMVTVSS VL: EIVMTQSPSVLPLFPGESGSLSCRASQNVGDFLAWYQHKPGQAPKLLIYGATNRPTGIPDRFSGTGSGTDFTLTISRMEPEDFAVYFCQQYGTSPPITFGPGTKVDIK", "Kd": 2.32},
      {"binder": "R3P1-E4 mAb (antibody, V domains shown) VH: QVQLVQSGGGLIQPGGSLRLSCAASGVTVSSNYMSWVRQAPGRGLEWVSLIYPGGSTYYADSVKGRFTISRDNSRNTLYLQMNSLRAEDTAVYYCARDLSEKGGMDVWGQGTTVTVSS VL: DIVMTQSPSSLSASVGDRVTITCRASQGISSYLAWYQQKPGKAPKLLIYAASTLQSGVPSRFSGSGSGTDFTLTISSLQPEDFATYYCQQLNSYPRFGPGTKVEIK", "Kd": 0.82}
    ]},
    {"target": "T1, SARS-CoV-2 S protein RBD domain (wild …)", "experiment": "ELISA", "conditions": "both partners purified", "values": [
      {"binder": "CB6 mAb (antibody, V domains shown) VH: EVQLVESGGGLVQPGGSLRLSCAASGFTVSSNYMSWVRQAPGKGLEWVSVIYSGGSTFYADSVKGRFTISRDNSMNTLFLQMNSLRAEDTAVYYCARVLPMYGDYLDYWGQGTLVTVSS VL: not shown", "binding result": "binds"},
      {"binder": "REGN10933 mAb (antibody, V domains shown) VH: QVQLVESGGGLVKPGGSLRLSCAASGFTFSDYYMSWIRQAPGKGLEWVSYITYSGSTIYYADSVKGRFTISRDNAKSSLYLQMNSLRAEDTAVYYCARDRGTTMVPFDYWGQGTLVTVSS VL: DIQMTQSPSSLSASVGDRVTITCQASQDITNYLNWYQQKPGKAPKLLIYAASNLETGVPSRFSGSGSGTDFTFTISGLQPEDIATYYCQQYDNLPLTFGGGTKVEIK", "binding result": "binds"},
      {"binder": "R3P2-B5 mAb (antibody, V domains shown) VH: QVQLVQSGGGLIQPGGSLRLSCAASGVTVSSNYMSWVRQAPGRGLEWVSLIYPGGSTYYADSVKGRFTISRDNSRNTLYLQMNSLRAEDTAVYYCARDLSEKGGMDVWGQGTLVTVSS VL: EIVMTQSPGTLSLSPGERVTLSCRTSQSVSRFFSWYQQKPGQAPRLLIHTASTRATDIPDRFSASGSGTDFTLTISRLEPEDSAMYYCQHYGASPYTFGQGTKVDIK", "binding result": "binds"},
      {"binder": "R3P2-G1 mAb (antibody, V domains shown) VH: QVQLVQSGGGLIQPGGSLRLSCAASGVTVSSNYMSWVRQAPGRGLEWVSLIYPGGSTYYADSVKGRFTISRDNSRNTLYLQMNSLRAEDTAVYYCARDLSEKGGMDVWGQGTTVTVSS VL: QAVLTQPPSVSVAPGKTARITCGGNHIGSKSVNWYQQKSGQAPVLVIYSDSDRPSGIPARFSGSNSGDTATLTISRVEAGDEADYYCQVWDNRSDHWVFGGGTQLTVL", "binding result": "binds"}
    ]}
  ]
}
